B1: library; numbered along this chain (parent)
chain: MRKPRAAVGSGHRKQAASQEGRQKHAKNNSQAKPSACDGLARQPEEVVLQASVSSYHLFRDVAEVTAFRGSLLSWYDQEKRDLPWRRRAEDEMDLDRRAYAVWVSEVMLQQTQVATVINYYTGWMQKWPTLQDLASASLEEVNQLWAGLGYYSRGRRLQEGARKVVEELGGHMPRTAETLQQLLPGVGRYTAGAIASIAFGQATGVVDGNVARVLCRVRAIGADPSSTLVSQQLWGLAQQLVDPARPGDFNQAAMELGATVCTPQRPLCSQCPVESLCRARQRVEQEQLLASGSLSGSPDVEECAPNTGQCHLCLPPSEPWDQTLGVVNFPRKASRKPPREESSATCVLEQPGALGAQILLVQRPNSGLLAGLWEFPSVTWEPSEQLQRKALLQELQRWAGPLPATHLRHLGEVVHTFSHIKLTYQVYGLALEGQTPVTTVPPGARWLTQEEFHTAAVSTAMKKVFRVYQGQQPGTCMGSKRSQVSSPCSRKKPRMGQQVLDNFFRSHISTDAHSLNSAAQ

Variants of: B1
Experiment: 8OG:A repair function score (normalized; synonymous = 0, nonsense = -1) (normalized log-likelihood score); higher = more repair activity (WT-like)
Conditions: with 8OG:A DNA repair reporter (GFP) in HEK-293 MUTYH KO cells
Method in brief: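 GFP+ (repair) and GFP− bins of viable mCherry+ cells were collected at 72 h from MUTYH knockout HEK-293 cells bearing lentiviral MUTYH cDNA NNN codon-scan libraries in 10 pg/ml doxycycline, co-transfected with an 8OG:A GFP repair reporter and mCherry. Tile amplicons were sequenced, and per-tile Rosace fitness scores were normalized to a repair function score anchored on synonymous and nonsense distributions. Synonymous medians were set to 0 and nonsense to -1, with variants under 300 counts per million at the start removed.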
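Note: cells sorted at 72 h after reporter transfection.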

8OG:A repair function score: each site, then its substitutions
S335: H 0.0625 | Y -0.0347 | L -0.0705 | D -0.0695 | P -0.028 | M -0.0531 | Q -0.044 | T 0.005 | G -0.02 | C -0.0251 | N 0.0783 | F -0.0626 | I -0.000462 | R -0.0718 | K 0.029 | A 0.0331 | V -0.0166 | E -0.0481 | W -0.0943
T324: Y -0.0755 | G -0.0488 | P -0.236 | A -0.0315 | V -0.0374 | E -0.099 | S 0.0429 | N -0.188 | M 0.0106 | D -0.162 | Q -0.0692 | L -0.000813 | H -0.0241 | R 0.0185 | W -0.0525 | C -0.0556 | F 0.00371 | I -0.0894 | K 0.056
D322: A -0.0859 | E 0.0971 | P -0.322 | C -0.00563 | Q -0.0416 | S -0.0836 | L -0.0483 | G -0.115 | K 0.00699 | N -0.00231 | T -0.0961 | I 0.0378 | F -0.0672 | H -0.147 | V 0.0232 | M 0.0738 | R -0.044 | W -0.0845 | Y -0.0375
F330: E -0.809 | G -0.999 | K -0.928 | Q -0.638 | P -1.04 | C -0.248 | R -0.958 | Y -0.0696 | M -0.174 | N -1.18 | T -0.478 | H -0.37 | W -0.017 | V -0.145 | A -0.791 | I -0.18 | D -1.15 | S -0.765 | L -0.149
E319: G -0.0752 | N -0.0746 | R 0.0109 | Q 0.0567 | M -0.0278 | Y -0.0495 | F -0.211 | W -0.0166 | C -0.02 | L 0.0108 | K -0.0997 | H -0.0143 | D -0.0309 | P -0.228 | S 0.0138 | I -0.0159 | T 0.123 | A -0.00684 | V -0.0112
P331: L -0.609 | E -0.568 | H -0.439 | D -0.501 | S -0.197 | T -0.351 | M -0.254 | W -0.233 | R -0.474 | C -0.105 | N -0.316 | K -0.332 | Q -0.608 | A -0.0508 | V -0.568 | Y -0.276 | F -0.357 | I -0.596 | G -0.0671
S318: T 0.116 | K -0.0665 | Y -0.0582 | L -0.0905 | N -0.0704 | R -0.0645 | V -0.155 | W 0.126 | Q -0.0273 | P -0.26
A334: C -0.0888 | L -0.0917 | V 0.00558 | G -0.0343 | Q -0.103 | E -0.0264 | I -0.198 | F -0.0391 | W -0.28 | H 0.0495 | Y 0.0534 | R 0.0363 | S 0.0289 | T -0.0373 | K 0.00736 | N 0.0217 | P -0.147 | D -0.242
R336: C -0.0115 | D -0.271 | F -0.164 | E -0.151 | A -0.0267
V328: H -0.251 | K 0.0221 | L 0.0391 | A -0.0621 | Y -0.134 | M -0.0227 | E -0.157 | G -0.0273 | W -0.0588 | S -0.00939 | P -0.507 | R 0.0191 | T -0.077 | I -0.0358 | F -0.215 | N -0.0823 | D -0.227 | C 0.0567 | Q 0.0461
P320: C -0.000958

Source: the supplement of paper PMC11908140
